Tests used:
Rtt109 = molecular target: T1, Rtt109 (UniProt Q07794 1-436); assay: PELDOR; 100 μM Vps75 Y35RX2 dimer with Rtt109 at ratios 2:0, 2:0.25, 2:0.5 and 2:1 (Vps75:Rtt109); conditions: both partners purified
T1 construct: expressed from a pET28a-derived vector, a gift from Paul Kaufman; also called histone acetyltransferase Rtt109
T1 sequence: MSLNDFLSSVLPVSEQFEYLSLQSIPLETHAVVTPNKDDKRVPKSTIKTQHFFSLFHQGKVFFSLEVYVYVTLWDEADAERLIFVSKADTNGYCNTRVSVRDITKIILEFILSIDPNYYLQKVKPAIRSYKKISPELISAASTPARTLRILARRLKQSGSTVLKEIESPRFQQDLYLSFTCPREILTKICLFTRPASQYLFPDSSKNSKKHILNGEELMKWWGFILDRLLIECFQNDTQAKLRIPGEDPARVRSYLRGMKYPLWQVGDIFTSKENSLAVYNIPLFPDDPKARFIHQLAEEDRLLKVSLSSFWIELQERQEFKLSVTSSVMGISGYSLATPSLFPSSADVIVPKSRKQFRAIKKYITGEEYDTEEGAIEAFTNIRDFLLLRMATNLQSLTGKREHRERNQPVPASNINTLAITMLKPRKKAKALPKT

[1] = molecular target: the molecule itself; assay: as above

- binding result (Rtt109): binds
B1: Vps75 Y35RX2 (natural protein, budding yeast, UniProt P53853 1-264, looked up)
chain: MMSDQENENEHAKAFLGLAKAEEEVDAIEREVELCRLNKMKPVYEKRDAYIDEIAEFWKIVLSQHVSFANYIRASDFKYIDTIDKIKVEWLALESEMYDTRDFSITFHFHGIEGDFKEQQVTKVFQIKKGKDDQEDGILTSEPVPIEWPQSYDSINPDLIKDKRSPEGKKKYRQGMKTIFGWFRWTGLKPGKEFPHGDSLASLFSEEIYPFAVKYYAEAQRDLEDEEGESGLSADGDSEDDDGSLGEVDLPLSDEEPSSKKRKV
modifications: 3,4-Bis-MTSL crosslinking spin label (RX2) joining cysteine 35 of the two chains of the dimer; deuterated protein
notes: Vps75 of budding yeast, open reading frame, unique cysteine at position 35; One spin label for each dimer; also called singly labelled Vps75 Y35RX2 dimer; not shown: His6, N-terminal, cleaved
- binding result [1]: binds
